{"source": "paper PMC8421416", "about": "“Structure of the native pyruvate dehydrogenase complex reveals the mechanism of substrate insertion” (Nature Communications, 2021)", "molecules": {"B1": {"name": "dihydrolipoyl transacetylase (E2p) of the E. coli pyruvate dehydrogenase complex (enzyme, E. coli K12, UniProt P06959 1-630, looked up)", "chain": "MAIEIKVPDIGADEVEITEILVKVGDKVEAEQSLITVEGDKASMEVPSPQAGIVKEIKVSVGDKTQTGALIMIFDSADGAADAAPAQAEEKKEAAPAAAPAAAAAKDVNVPDIGSDEVEVTEILVKVGDKVEAEQSLITVEGDKASMEVPAPFAGTVKEIKVNVGDKVSTGSLIMVFEVAGEAGAAAPAAKQEAAPAAAPAPAAGVKEVNVPDIGGDEVEVTEVMVKVGDKVAAEQSLITVEGDKASMEVPAPFAGVVKELKVNVGDKVKTGSLIMIFEVEGAAPAAAPAKQEAAAPAPAAKAEAPAAAPAAKAEGKSEFAENDAYVHATPLIRRLAREFGVNLAKVKGTGRKGRILREDVQAYVKEAIKRAEAAPAATGGGIPGMLPWPKVDFSKFGEIEEVELGRIQKISGANLSRNWVMIPHVTHFDKTDITELEAFRKQQNEEAAKRKLDVKITPVVFIMKAVAAALEQMPRFNSSLSEDGQRLTLKKYINIGVAVDTPNGLVVPVFKDVNKKGIIELSRELMTISKKARDGKLTAGEMQGGCFTISSIGGLGTTHFAPIVNAPEVAILGVSKSAMEPVWNGKEFVPRLMLPISLSFDHRVIDGADGARFITIINNTLSDIRRLVM", "modifications": "lipoylated residues K41, K144 and K245 (mass spectrometry); dihydrolipoyllysine modelled at K245 in the structure", "notes": "dihydrolipoyl transacetylase (E2p), aceF gene, E. coli strain K12; native full-length protein, modelled catalytic domain starts at P384; It was modelled as the innermost one (K245), from PDB 1qjo; also called dihydrolipoyl acyltransferase; E2p core; source: endogenous, E. coli K12; copies: 24"}}, "key": {"[1]": {"target": "T1, dihydrolipoyl transacetylase (E2p) core of E. coli PDHc (Escherichia coli, UniProt P06959)", "T1 construct": "gene aceF; native full-length E2p in native PDHc; catalytic domain modelled from P384 plus one lipoyl domain (averaged, modelled as innermost, K245); octahedral 24-mer", "T1 sequence (P06959 2-630)": "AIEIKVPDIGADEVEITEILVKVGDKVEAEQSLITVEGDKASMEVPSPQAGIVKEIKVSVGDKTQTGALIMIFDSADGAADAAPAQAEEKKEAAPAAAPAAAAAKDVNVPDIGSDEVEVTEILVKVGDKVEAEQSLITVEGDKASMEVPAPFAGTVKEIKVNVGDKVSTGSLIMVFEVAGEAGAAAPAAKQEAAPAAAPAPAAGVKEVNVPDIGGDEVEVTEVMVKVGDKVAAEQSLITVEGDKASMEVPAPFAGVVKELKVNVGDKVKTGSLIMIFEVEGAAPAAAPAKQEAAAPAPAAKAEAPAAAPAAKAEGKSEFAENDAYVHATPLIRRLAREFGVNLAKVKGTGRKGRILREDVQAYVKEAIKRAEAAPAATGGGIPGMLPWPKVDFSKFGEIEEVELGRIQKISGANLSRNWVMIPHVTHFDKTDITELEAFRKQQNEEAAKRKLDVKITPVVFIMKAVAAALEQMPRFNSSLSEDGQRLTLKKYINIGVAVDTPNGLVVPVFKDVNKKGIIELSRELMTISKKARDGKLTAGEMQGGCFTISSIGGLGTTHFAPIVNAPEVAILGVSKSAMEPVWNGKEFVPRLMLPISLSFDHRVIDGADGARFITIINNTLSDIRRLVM", "assay": "cryo-EM structure, […] A", "format": "binding", "conditions": "covalent: moiety attached by amide bond to K245 of the lipoyl domain of the same protein (dihydrolipoyllysine), not the free amide; bound in E2p active site channel; no CoA; reduced state modelled, ox"}, "[2]": {"target": "the molecule itself", "assay": "cryo-EM structure; native E2p core of PDHc isolated from E. coli K12, resting state without substrates; 20 mM Hepes pH 7.5, 150 mM NaCl; O symmetry imposed, 3.16 Å"}, "[3]": {"target": "T2, pyruvate dehydrogenase (E1p) of the E. coli pyruvate dehydrogenase complex (E. coli K12 (endogenous), UniProt P0AFG8 1-887)", "T2 construct": "pyruvate dehydrogenase E1 component (E1p), E. coli K12, endogenous subunit of the native PDHc; source: endogenous, E. coli K12", "T2 sequence (P0AFG8 whole entry, one chain of several)": "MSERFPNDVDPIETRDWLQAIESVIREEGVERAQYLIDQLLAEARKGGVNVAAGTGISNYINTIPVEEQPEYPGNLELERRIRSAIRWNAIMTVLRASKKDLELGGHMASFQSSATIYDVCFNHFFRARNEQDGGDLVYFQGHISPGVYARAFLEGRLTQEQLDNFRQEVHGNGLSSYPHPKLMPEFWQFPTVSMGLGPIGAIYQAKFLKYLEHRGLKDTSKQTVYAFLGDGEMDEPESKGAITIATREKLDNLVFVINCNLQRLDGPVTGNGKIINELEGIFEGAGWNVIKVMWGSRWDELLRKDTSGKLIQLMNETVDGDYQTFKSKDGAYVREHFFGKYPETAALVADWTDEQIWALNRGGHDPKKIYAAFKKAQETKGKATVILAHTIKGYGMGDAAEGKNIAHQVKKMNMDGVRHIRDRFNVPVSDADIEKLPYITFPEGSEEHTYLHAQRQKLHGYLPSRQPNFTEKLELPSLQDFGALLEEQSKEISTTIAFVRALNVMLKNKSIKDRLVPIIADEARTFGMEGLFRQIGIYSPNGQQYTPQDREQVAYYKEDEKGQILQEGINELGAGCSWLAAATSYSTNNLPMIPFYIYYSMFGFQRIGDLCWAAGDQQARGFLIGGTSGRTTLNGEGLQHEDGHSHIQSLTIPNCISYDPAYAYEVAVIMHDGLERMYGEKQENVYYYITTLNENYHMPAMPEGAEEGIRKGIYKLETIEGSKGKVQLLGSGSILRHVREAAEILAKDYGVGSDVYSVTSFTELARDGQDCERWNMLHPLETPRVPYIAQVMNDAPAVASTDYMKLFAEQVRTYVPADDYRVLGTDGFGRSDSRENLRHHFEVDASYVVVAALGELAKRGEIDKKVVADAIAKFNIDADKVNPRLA", "assay": "cryo-EM structure; whole native PDHc (approx. 4.5 MDa) isolated from E. coli K12; low-resolution reconstruction without symmetry; 2D classes of the outer shell after subtraction of the E2p core", "conditions": "both partners purified"}, "[4]": {"target": "B1", "assay": "cryo-EM structure; whole native PDHc (approx. 4.5 MDa) isolated from E. coli K12; low-resolution reconstruction without symmetry; 2D classes of the outer shell after subtraction of the E2p core", "conditions": "both partners purified"}}}
{"molecule": "NC(=O)CCCC[C@@H](S)CCS", "note": "[dihydrolipoamide]", "values": [{"measurement": "cryo-EM structure, 3.16 A", "setting": "[1]", "value": "we modeled the prosthetic group as dihydrolipoamide, i.e., the product of the E2p-catalyzed reaction"}]}
{"molecule": "B1", "values": [{"measurement": "stoichiometry N", "setting": "[2]", "value": 24}, {"measurement": "binding result", "setting": "[3]", "value": "binds"}]}
{"molecule": "dihydrolipoyl dehydrogenase (E3) of the E. coli pyruvate dehydrogenase complex (enzyme, E. coli K12 (endogenous), UniProt P0A9P0 1-474, looked up, dihydrolipoyl dehydrogenase (E3), E. coli K12, endogenous subunit of the native PDHc; source: endogenous, E. coli K12) MSTEIKTQVVVLGAGPAGYSAAFRCADLGLETVIVERYNTLGGVCLNVGCIPSKALLHVAKVIEEAKALAEHGIVFGEPKTDIDKIRTWKEKVINQLTGGLAGMAKGRKVKVVNGLGKFTGANTLEVEGENGKTVINFDNAIIAAGSRPIQLPFIPHEDPRIWDSTDALELKEVPERLLVMGGGIIGLEMGTVYHALGSQIDVVEMFDQVIPAADKDIVKVFTKRISKKFNLMLETKVTAVEAKEDGIYVTMEGKKAPAEPQRYDAVLVAIGRVPNGKNLDAGKAGVEVDDRGFIRVDKQLRTNVPHIFAIGDIVGQPMLAHKGVHEGHVAAEVIAGKKHYFDPKVIPSIAYTEPEVAWVGLTEKEAKEKGISYETATFPWAASGRAIASDCADGMTKLIFDKESHRVIGGAIVGTNGGELLGEIGLAIEMGCDAEDIALTIHAHPTLHESVGLAAEVFEGSITDLPNPKAKKK", "values": [{"measurement": "binding result", "setting": "[4]", "value": "binds"}]}
